The target in this assay is T1, human GPC3 (human, UniProt P51654 25-563).
T1 construct: range 25-563; soluble analyte; also called soluble human GPC3; glypican 3
In words: SPR. (In general: SPR reads the build-up and loss of mass on a sensor chip optically.)

The values that follow come from patent publication US20250066503A1, “CELL INJURY INDUCING THERAPEUTIC DRUG FOR USE IN CANCER THERAPY” (CHUGAI SEIYAKU KABUSHIKI KAISHA, priority 2016, published 2025).

Usually Kd stands for the constant that tells how readily two partners part at equilibrium.

T1 sequence (P51654 25-563 limits assumed): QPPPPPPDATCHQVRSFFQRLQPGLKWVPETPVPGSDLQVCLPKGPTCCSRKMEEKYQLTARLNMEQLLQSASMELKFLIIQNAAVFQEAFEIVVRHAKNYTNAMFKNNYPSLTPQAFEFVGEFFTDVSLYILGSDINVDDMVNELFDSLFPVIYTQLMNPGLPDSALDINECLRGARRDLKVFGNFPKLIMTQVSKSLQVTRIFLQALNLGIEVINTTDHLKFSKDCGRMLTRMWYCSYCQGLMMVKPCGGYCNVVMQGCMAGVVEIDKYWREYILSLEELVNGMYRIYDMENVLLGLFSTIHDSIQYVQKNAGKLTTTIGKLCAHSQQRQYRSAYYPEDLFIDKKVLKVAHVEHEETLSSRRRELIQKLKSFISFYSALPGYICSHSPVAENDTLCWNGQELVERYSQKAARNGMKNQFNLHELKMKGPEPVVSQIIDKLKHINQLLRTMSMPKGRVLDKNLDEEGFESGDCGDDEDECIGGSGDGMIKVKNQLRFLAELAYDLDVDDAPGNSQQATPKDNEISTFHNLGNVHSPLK

B1: H0610-G1dh/none-Hi-Kn010G3/L0075-k0 (antibody, V domains shown)
VH: QVQLVQSGAEVKKPGASVKVSCKASGYTFTDYEMHWIRQPPGQGLEWIGAIDGKTPDTAYSQKFKGRVTLTADKSTSTAYMELSSLTSEDTAVYYCTRFYSYTYWGQGTLVTVSS
VL: DIVMTQSPLSLPVTPGEPASISCRSSQSLVHSNRWTYLHWYQQKPGQAPRLLIYKVSNRFSGVPDRFSGSGSGTDFTLKISRVEAEDVGVYYCGQGTQVPYTFGQGTKLEIK
notes: one-arm
For the molecule B1, the affinity, expressed as Kd, was 2.85 nM.

B2: H0610-G1dh/none-Hi-Kn010G3/L0093-k0 (antibody, V domains shown)
VH: QVQLVQSGAEVKKPGASVKVSCKASGYTFTDYEMHWIRQPPGQGLEWIGAIDGKTPDTAYSQKFKGRVTLTADKSTSTAYMELSSLTSEDTAVYYCTRFYSYTYWGQGTLVTVSS
VL: DIVMTQSPLSLPVTPGEPASISCRSSQSLVHSNRNTYLQWYQQKPGQAPRLLIYKVSNRFSGVPDRFSGSGSGTDFTLKISRVEAEDVGVYYCGQGTQVPYTFGQGTKLEIK
notes: one-arm
The molecule B2 yielded a Kd of 0.106 nM.

B3: H0610-G1dh/none-Hi-Kn010G3/L0085-k0 (antibody, V domains shown)
VH: QVQLVQSGAEVKKPGASVKVSCKASGYTFTDYEMHWIRQPPGQGLEWIGAIDGKTPDTAYSQKFKGRVTLTADKSTSTAYMELSSLTSEDTAVYYCTRFYSYTYWGQGTLVTVSS
VL: DIVMTQSPLSLPVTPGEPASISCRSSQSLVHSNRNTYLEWYQQKPGQAPRLLIYKVSNRFSGVPDRFSGSGSGTDFTLKISRVEAEDVGVYYCGQGTQVPYTFGQGTKLEIK
notes: one-arm
On to B3, for which the affinity, expressed as Kd, was 1.17 nM.

B4: H0610-G1dh/none-Hi-Kn010G3/L0091-k0 (antibody, V domains shown)
VH: QVQLVQSGAEVKKPGASVKVSCKASGYTFTDYEMHWIRQPPGQGLEWIGAIDGKTPDTAYSQKFKGRVTLTADKSTSTAYMELSSLTSEDTAVYYCTRFYSYTYWGQGTLVTVSS
VL: DIVMTQSPLSLPVTPGEPASISCRSSQSLVHSNRNTYLNWYQQKPGQAPRLLIYKVSNRFSGVPDRFSGSGSGTDFTLKISRVEAEDVGVYYCGQGTQVPYTFGQGTKLEIK
notes: one-arm
As to B4, binding was characterised by a dissociation constant (Kd) of 5.43 nM.

B5: H0610-G1dh/none-Hi-Kn010G3/L0109-k0 (antibody, V domains shown)
VH: QVQLVQSGAEVKKPGASVKVSCKASGYTFTDYEMHWIRQPPGQGLEWIGAIDGKTPDTAYSQKFKGRVTLTADKSTSTAYMELSSLTSEDTAVYYCTRFYSYTYWGQGTLVTVSS
VL: DIVMTQSPLSLPVTPGEPASISCRSSQSLVHSNRNTYLHWYQQKPGQAPRLLIYKVSMRFSGVPDRFSGSGSGTDFTLKISRVEAEDVGVYYCGQGTQVPYTFGQGTKLEIK
notes: one-arm
B5 showed a Kd of 5.7 nM.

B6: H0610-G1dh/none-Hi-Kn010G3/L0104-k0 (antibody, V domains shown)
VH: QVQLVQSGAEVKKPGASVKVSCKASGYTFTDYEMHWIRQPPGQGLEWIGAIDGKTPDTAYSQKFKGRVTLTADKSTSTAYMELSSLTSEDTAVYYCTRFYSYTYWGQGTLVTVSS
VL: DIVMTQSPLSLPVTPGEPASISCRSSQSLVHSNRNTYLHWYQQKPGQAPRLLIYKVSFRFSGVPDRFSGSGSGTDFTLKISRVEAEDVGVYYCGQGTQVPYTFGQGTKLEIK
notes: one-arm
In turn, B6 gave a Kd of 5.9 nM. This Kd and that of the molecule before are within 1.5-fold of each other.

B7: H0610-G1dh/none-Hi-Kn010G3/L0107-k0 (antibody, V domains shown)
VH: QVQLVQSGAEVKKPGASVKVSCKASGYTFTDYEMHWIRQPPGQGLEWIGAIDGKTPDTAYSQKFKGRVTLTADKSTSTAYMELSSLTSEDTAVYYCTRFYSYTYWGQGTLVTVSS
VL: DIVMTQSPLSLPVTPGEPASISCRSSQSLVHSNRNTYLHWYQQKPGQAPRLLIYKVSIRFSGVPDRFSGSGSGTDFTLKISRVEAEDVGVYYCGQGTQVPYTFGQGTKLEIK
notes: one-arm
B7: the Kd turned out to be 4.38 nM. This Kd and that of the molecule before are within 1.5-fold of each other.

B8: H0610-G1dh/none-Hi-Kn010G3/L0117-k0 (antibody, V domains shown)
VH: QVQLVQSGAEVKKPGASVKVSCKASGYTFTDYEMHWIRQPPGQGLEWIGAIDGKTPDTAYSQKFKGRVTLTADKSTSTAYMELSSLTSEDTAVYYCTRFYSYTYWGQGTLVTVSS
VL: DIVMTQSPLSLPVTPGEPASISCRSSQSLVHSNRNTYLHWYQQKPGQAPRLLIYKVSNRASGVPDRFSGSGSGTDFTLKISRVEAEDVGVYYCGQGTQVPYTFGQGTKLEIK
notes: one-arm
For the molecule B8, the Kd came out at 4.92 nM.

B9: H0610-G1dh/none-Hi-Kn010G3/L0090-k0 (antibody, V domains shown)
VH: QVQLVQSGAEVKKPGASVKVSCKASGYTFTDYEMHWIRQPPGQGLEWIGAIDGKTPDTAYSQKFKGRVTLTADKSTSTAYMELSSLTSEDTAVYYCTRFYSYTYWGQGTLVTVSS
VL: DIVMTQSPLSLPVTPGEPASISCRSSQSLVHSNRNTYLMWYQQKPGQAPRLLIYKVSNRFSGVPDRFSGSGSGTDFTLKISRVEAEDVGVYYCGQGTQVPYTFGQGTKLEIK
notes: one-arm
B9 showed a Kd of 1.12 nM.

B10: H0610-G1dh/none-Hi-Kn010G3/L0089-k0 (antibody, V domains shown)
VH: QVQLVQSGAEVKKPGASVKVSCKASGYTFTDYEMHWIRQPPGQGLEWIGAIDGKTPDTAYSQKFKGRVTLTADKSTSTAYMELSSLTSEDTAVYYCTRFYSYTYWGQGTLVTVSS
VL: DIVMTQSPLSLPVTPGEPASISCRSSQSLVHSNRNTYLLWYQQKPGQAPRLLIYKVSNRFSGVPDRFSGSGSGTDFTLKISRVEAEDVGVYYCGQGTQVPYTFGQGTKLEIK
notes: one-arm
B10 returned a Kd of 5.24 nM. Compared with the last molecule, the Kd is about 4.7-fold higher.

B11: H0610-G1dh/none-Hi-Kn010G3/L0115-k0 (antibody, V domains shown)
VH: QVQLVQSGAEVKKPGASVKVSCKASGYTFTDYEMHWIRQPPGQGLEWIGAIDGKTPDTAYSQKFKGRVTLTADKSTSTAYMELSSLTSEDTAVYYCTRFYSYTYWGQGTLVTVSS
VL: DIVMTQSPLSLPVTPGEPASISCRSSQSLVHSNRNTYLHWYQQKPGQAPRLLIYKVSWRFSGVPDRFSGSGSGTDFTLKISRVEAEDVGVYYCGQGTQVPYTFGQGTKLEIK
notes: one-arm
With B11, the Kd came out at 4.34 nM.

B12: H0610-G1dh/none-Hi-Kn010G3/L0106-k0 (antibody, V domains shown)
VH: QVQLVQSGAEVKKPGASVKVSCKASGYTFTDYEMHWIRQPPGQGLEWIGAIDGKTPDTAYSQKFKGRVTLTADKSTSTAYMELSSLTSEDTAVYYCTRFYSYTYWGQGTLVTVSS
VL: DIVMTQSPLSLPVTPGEPASISCRSSQSLVHSNRNTYLHWYQQKPGQAPRLLIYKVSHRFSGVPDRFSGSGSGTDFTLKISRVEAEDVGVYYCGQGTQVPYTFGQGTKLEIK
notes: one-arm
B12: the affinity, expressed as Kd, was 5.66 nM. The Kd values of the last two molecules are within 1.5-fold of each other.

B13: H0610-G1dh/none-Hi-Kn010G3/L0079-k0 (antibody, V domains shown)
VH: QVQLVQSGAEVKKPGASVKVSCKASGYTFTDYEMHWIRQPPGQGLEWIGAIDGKTPDTAYSQKFKGRVTLTADKSTSTAYMELSSLTSEDTAVYYCTRFYSYTYWGQGTLVTVSS
VL: DIVMTQSPLSLPVTPGEPASISCRSSQSLVHSNRNTYIHWYQQKPGQAPRLLIYKVSNRFSGVPDRFSGSGSGTDFTLKISRVEAEDVGVYYCGQGTQVPYTFGQGTKLEIK
notes: one-arm
For the molecule B13, binding was put at a Kd of 4.23 nM.

B14: H0610-G1dh/none-Hi-Kn010G3/L0113-k0 (antibody, V domains shown)
VH: QVQLVQSGAEVKKPGASVKVSCKASGYTFTDYEMHWIRQPPGQGLEWIGAIDGKTPDTAYSQKFKGRVTLTADKSTSTAYMELSSLTSEDTAVYYCTRFYSYTYWGQGTLVTVSS
VL: DIVMTQSPLSLPVTPGEPASISCRSSQSLVHSNRNTYLHWYQQKPGQAPRLLIYKVSTRFSGVPDRFSGSGSGTDFTLKISRVEAEDVGVYYCGQGTQVPYTFGQGTKLEIK
notes: one-arm
Molecule B14 gave a Kd of 4.82 nM. The Kd values of the last two molecules are within 1.5-fold of each other.

B15: H0610-G1dh/none-Hi-Kn010G3/L0082-k0 (antibody, V domains shown)
VH: QVQLVQSGAEVKKPGASVKVSCKASGYTFTDYEMHWIRQPPGQGLEWIGAIDGKTPDTAYSQKFKGRVTLTADKSTSTAYMELSSLTSEDTAVYYCTRFYSYTYWGQGTLVTVSS
VL: DIVMTQSPLSLPVTPGEPASISCRSSQSLVHSNRNTYVHWYQQKPGQAPRLLIYKVSNRFSGVPDRFSGSGSGTDFTLKISRVEAEDVGVYYCGQGTQVPYTFGQGTKLEIK
notes: one-arm
B15 registered a Kd of 3.43 nM.
